System: Escherichia coli TOP10
Experiment: shrunken log2 fold change of peptide-encoding DNA abundance (4.5 h post-induction vs induction); higher = less antimicrobial activity (less host growth inhibition)
Conditions: time post-induction: 4.5 h; library: site-saturation at positions 5, 18, 19, 20
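Note: peptides expressed intracellularly from a pBAD plasmid library in pooled LB shake-flask culture, induced with 0.3% L-arabinose, DNA abundance read by NGS, three biological replicates, DESeq2 with apeglm shrinkage.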

| Sequence | shrunken log2 fold change |
| --- | --- |
| RRIRCRPPRLPRPRPRPIQFPRP | -0.131 |
| RRIRERPPRLPRPRPRPTNKPRP | -0.533 |
| RRIRGRPPRLPRPRPRPCMKPRP | 0.507 |
| RRIRTRPPRLPRPRPRPRKLPRP | -0.073 |
| RRIRERPPRLPRPRPRPEDHPRP | -0.111 |
| RRIRGRPPRLPRPRPRPIYFPRP | -0.533 |
| RRIRTRPPRLPRPRPRPATVPRP | 0.0426 |
| RRIRRRPPRLPRPRPRPPIVPRP | -0.00408 |
| RRIRFRPPRLPRPRPRPSVPPRP | -0.0911 |
| RRIRMRPPRLPRPRPRPRGGPRP | 1.26 |
| RRIRVRPPRLPRPRPRPQLKPRP | -0.177 |
| RRIRWRPPRLPRPRPRPSMSPRP | 0.0258 |
| RRIRMRPPRLPRPRPRPENNPRP | 1.53 |
| RRIRFRPPRLPRPRPRPPDYPRP | -0.026 |
| RRIRTRPPRLPRPRPRPDSMPRP | 0.0768 |
| RRIRFRPPRLPRPRPRPAVPPRP | 0.0613 |
| RRIRIRPPRLPRPRPRPEEMPRP | -0.416 |
| RRIRARPPRLPRPRPRPFPWPRP | 0.477 |
| RRIRIRPPRLPRPRPRPQVGPRP | -0.094 |
| RRIRMRPPRLPRPRPRPNKNPRP | 0.152 |
| RRIRHRPPRLPRPRPRPNAFPRP | -0.14 |
| RRIRTRPPRLPRPRPRPQVFPRP | -0.0243 |
| RRIRMRPPRLPRPRPRPWHLPRP | -0.00137 |
| RRIRCRPPRLPRPRPRPVDHPRP | -0.148 |
| RRIRIRPPRLPRPRPRPVHVPRP | -0.168 |

| Sequence | shrunken log2 fold change |
| --- | --- |
| RRIRHRPPRLPRPRPRPYGVPRP | -0.256 |
| RRIRVRPPRLPRPRPRPIRGPRP | 0.0551 |
| RRIRTRPPRLPRPRPRPPQEPRP | 0.0383 |
| RRIRRRPPRLPRPRPRPCYIPRP | -0.205 |
| RRIRLRPPRLPRPRPRPFIWPRP | 0.112 |
| RRIRSRPPRLPRPRPRPVTAPRP | -0.0769 |
| RRIRHRPPRLPRPRPRPDSFPRP | -0.477 |
| RRIRARPPRLPRPRPRPICAPRP | 0.799 |
| RRIRHRPPRLPRPRPRPVIDPRP | -0.395 |
| RRIRIRPPRLPRPRPRPGQQPRP | 0.0905 |
| RRIRERPPRLPRPRPRPHCIPRP | -0.000243 |
| RRIRRRPPRLPRPRPRPINPPRP | 0.00585 |
| RRIRMRPPRLPRPRPRPYLVPRP | -0.016 |
| RRIRRRPPRLPRPRPRPWHHPRP | -0.242 |
| RRIRDRPPRLPRPRPRPTAHPRP | 0.547 |
| RRIRFRPPRLPRPRPRPWVWPRP | 0.212 |
| RRIRSRPPRLPRPRPRPSVQPRP | -0.0563 |
| RRIRTRPPRLPRPRPRPAWRPRP | 0.594 |
| RRIRARPPRLPRPRPRPDRYPRP | -0.474 |
| RRIRYRPPRLPRPRPRPWMPPRP | -0.417 |
| RRIRARPPRLPRPRPRPMFRPRP | -0.217 |
| RRIRGRPPRLPRPRPRPTRKPRP | 1.12 |
| RRIRNRPPRLPRPRPRPICFPRP | -0.217 |
| RRIRWRPPRLPRPRPRPSLDPRP | -0.00135 |
| RRIRVRPPRLPRPRPRPANVPRP | -0.597 |

| Sequence | shrunken log2 fold change |
| --- | --- |
| RRIRRRPPRLPRPRPRPDFMPRP | 0.335 |
| RRIRKRPPRLPRPRPRPYSHPRP | -0.134 |
| RRIRSRPPRLPRPRPRPEAYPRP | -0.141 |
| RRIRNRPPRLPRPRPRPSRQPRP | 0.0744 |
| RRIRSRPPRLPRPRPRPAKRPRP | 0.214 |
| RRIRERPPRLPRPRPRPFCVPRP | -0.026 |
| RRIRERPPRLPRPRPRPYTIPRP | -0.267 |
| RRIRKRPPRLPRPRPRPFCLPRP | -0.0107 |
| RRIRMRPPRLPRPRPRPGYNPRP | -0.282 |
| RRIRMRPPRLPRPRPRPYSFPRP | -0.266 |
| RRIRNRPPRLPRPRPRPRRLPRP | 2.6 |
| RRIRFRPPRLPRPRPRPFPRPRP | -0.0288 |
| RRIRWRPPRLPRPRPRPWCGPRP | 0.273 |
| RRIRPRPPRLPRPRPRPEEIPRP | -0.00277 |
| RRIRPRPPRLPRPRPRPGVPPRP | 0.301 |
| RRIRSRPPRLPRPRPRPCYGPRP | -0.523 |
| RRIRRRPPRLPRPRPRPCAVPRP | 0.0527 |
| RRIRYRPPRLPRPRPRPHYSPRP | -0.124 |
| RRIRPRPPRLPRPRPRPRPSPRP | 0.333 |
| RRIRSRPPRLPRPRPRPTKQPRP | 0.129 |
| RRIRQRPPRLPRPRPRPWVYPRP | -0.264 |
| RRIRARPPRLPRPRPRPMLEPRP | 0.455 |
| RRIRPRPPRLPRPRPRPYQMPRP | -0.722 |
| RRIRKRPPRLPRPRPRPNCWPRP | 0.621 |
| RRIRPRPPRLPRPRPRPKCSPRP | -0.197 |

| Sequence | shrunken log2 fold change |
| --- | --- |
| RRIRQRPPRLPRPRPRPKPWPRP | 0.502 |
| RRIRKRPPRLPRPRPRPFMRPRP | 0.24 |
| RRIRARPPRLPRPRPRPSIHPRP | -0.233 |
| RRIRRRPPRLPRPRPRPWIYPRP | -0.118 |
| RRIRLRPPRLPRPRPRPKQQPRP | -0.134 |
| RRIRQRPPRLPRPRPRPYSMPRP | -0.031 |
| RRIRERPPRLPRPRPRPRPYPRP | -0.0326 |
| RRIRSRPPRLPRPRPRPVWTPRP | 0.241 |
| RRIRKRPPRLPRPRPRPRNPPRP | 0.358 |
| RRIRPRPPRLPRPRPRPFEIPRP | -0.0325 |
| RRIRQRPPRLPRPRPRPHSPPRP | 0.000964 |
| RRIRHRPPRLPRPRPRPVKIPRP | -0.0352 |
| RRIRTRPPRLPRPRPRPEIQPRP | -0.00275 |
| RRIRNRPPRLPRPRPRPHATPRP | 0.00661 |
| RRIRRRPPRLPRPRPRPNMKPRP | 0.069 |
| RRIRWRPPRLPRPRPRPPHDPRP | 0.738 |
| RRIRARPPRLPRPRPRPHHPPRP | -0.242 |
| RRIRGRPPRLPRPRPRPSNHPRP | -0.145 |
| RRIRPRPPRLPRPRPRPQAGPRP | 0.00187 |
| RRIRWRPPRLPRPRPRPHFGPRP | 0.168 |
| RRIRQRPPRLPRPRPRPSYVPRP | -1.04 |
| RRIRPRPPRLPRPRPRPMQIPRP | 0.114 |
| RRIRMRPPRLPRPRPRPDPLPRP | 0.255 |
| RRIRIRPPRLPRPRPRPAPFPRP | 0.271 |
| RRIRLRPPRLPRPRPRPHYCPRP | -0.0889 |

| Sequence | shrunken log2 fold change |
| --- | --- |
| RRIRYRPPRLPRPRPRPHEAPRP | -0.215 |
| RRIRNRPPRLPRPRPRPHDEPRP | -0.103 |
| RRIRWRPPRLPRPRPRPSIPPRP | 0.46 |
| RRIRQRPPRLPRPRPRPKSQPRP | 0.32 |
| RRIRARPPRLPRPRPRPLCQPRP | 0.42 |
| RRIRMRPPRLPRPRPRPIGVPRP | 0.0547 |
| RRIRMRPPRLPRPRPRPKGCPRP | -0.0257 |
| RRIRSRPPRLPRPRPRPHWGPRP | -0.107 |
| RRIRWRPPRLPRPRPRPCSFPRP | 0.0624 |
| RRIRQRPPRLPRPRPRPVLGPRP | 0.226 |
| RRIRLRPPRLPRPRPRPCERPRP | -0.0471 |
| RRIRWRPPRLPRPRPRPNKKPRP | -0.076 |
| RRIRFRPPRLPRPRPRPTRQPRP | 0.298 |
| RRIRHRPPRLPRPRPRPPDVPRP | 0.113 |
| RRIRMRPPRLPRPRPRPPTIPRP | 0.301 |
| RRIRWRPPRLPRPRPRPRNDPRP | 0.126 |
| RRIRKRPPRLPRPRPRPFFTPRP | 0.19 |
| RRIRYRPPRLPRPRPRPYYPPRP | -0.293 |
| RRIRERPPRLPRPRPRPIICPRP | -0.0147 |
| RRIRHRPPRLPRPRPRPFRPPRP | -0.188 |
| RRIRYRPPRLPRPRPRPFTQPRP | -0.646 |
| RRIRMRPPRLPRPRPRPGMKPRP | 0.282 |
| RRIRCRPPRLPRPRPRPIQCPRP | -0.14 |
| RRIRDRPPRLPRPRPRPSLKPRP | 0.155 |
| RRIRHRPPRLPRPRPRPEQIPRP | 0.0219 |

| Sequence | shrunken log2 fold change |
| --- | --- |
| RRIRPRPPRLPRPRPRPDPQPRP | -0.0397 |
| RRIRSRPPRLPRPRPRPHGNPRP | -0.00459 |
| RRIRSRPPRLPRPRPRPCVDPRP | 0.00587 |
| RRIRYRPPRLPRPRPRPIWNPRP | 0.0337 |
| RRIRQRPPRLPRPRPRPFWAPRP | 0.289 |
| RRIRVRPPRLPRPRPRPELYPRP | 0.0948 |
| RRIRCRPPRLPRPRPRPCCEPRP | 0.0666 |
| RRIRTRPPRLPRPRPRPQSKPRP | -0.209 |
| RRIRLRPPRLPRPRPRPKAMPRP | -0.023 |
| RRIRLRPPRLPRPRPRPRESPRP | 0.787 |
| RRIRFRPPRLPRPRPRPQYLPRP | -0.329 |
| RRIRPRPPRLPRPRPRPFDDPRP | -0.189 |
| RRIRSRPPRLPRPRPRPLPSPRP | 0.255 |
| RRIRNRPPRLPRPRPRPIHAPRP | -0.0866 |
| RRIRTRPPRLPRPRPRPECCPRP | 0.348 |
| RRIRARPPRLPRPRPRPLEGPRP | 0.564 |
| RRIRVRPPRLPRPRPRPSNTPRP | -0.417 |
| RRIRGRPPRLPRPRPRPNMKPRP | 0.275 |
| RRIRRRPPRLPRPRPRPEKNPRP | 0.289 |
| RRIRYRPPRLPRPRPRPNCNPRP | -0.962 |
| RRIRARPPRLPRPRPRPCDHPRP | 0.0696 |
| RRIRGRPPRLPRPRPRPPGDPRP | 1.18 |
| RRIRKRPPRLPRPRPRPTPNPRP | 0.553 |
| RRIRLRPPRLPRPRPRPIFHPRP | -0.192 |
| RRIRGRPPRLPRPRPRPHDEPRP | 0.136 |

Reference: the supplement of paper PMC9112550, “Optimization of the antimicrobial peptide Bac7 by deep mutational scanning” (BMC Biology, 2022)
